What was measured:
[1] = molecular target: GARP R143Y / TGF-β1 complex (human, UniProt Q14392 20-662; P01137 30-390); test: FACS titration on transfected 293T; EC50 mutant / EC50 WT [cont.) B]
Protocol: (§1) Intensities of staining at each concentration of antibody relative to the maximal intensity measured at 5 μg/ml were determined as follows:
(§2) The relative staining intensities were plotted according to the concentration of antibody used for staining, and a non-linear regression analysis was used with the Prism software to determine an EC₅₀ value for binding of the antibody to the WT and to each of the various mutant GARP/TGF-β1 complexes. If the ratio between the EC₅₀ measured on the mutant and the EC₅₀ measured on the WT was >2, the mutation was considered to induce a reduced avidity for binding by the antibody. The ratio of EC₅₀ (mutant vs WT) for MHG-8 and LHG-10 are indicated below each mutation on FIG. 19, parts A and B, respectively.

[2] = molecular target: GARP G118L/G119L / TGF-β1 complex (human, UniProt Q14392 20-662; P01137 30-390); test: as above
Protocol: as §1, §2

[3] = molecular target: GARP / TGF-β1 K338E complex (human, UniProt Q14392 20-662; P01137 30-390); test: as above
Protocol: as §1, §2

[4] = molecular target: GARP / TGF-β1 E146R complex (human, UniProt Q14392 20-662; P01137 30-390); test: as above
Protocol: as §1, §2

[5] = molecular target: GARP R166M/H167E / TGF-β1 complex (human, UniProt Q14392 20-662; P01137 30-390); test: as above
Protocol: as §1, §2

[6] = molecular target: T1, GARP G139N / TGF-β1 complex (human, UniProt Q14392 20-662; P01137 30-390); test: as above
Protocol: as §1, §2

[7] = molecular target: GARP L140K/E142L / TGF-β1 complex (human, UniProt Q14392 20-662; P01137 30-390); test: as above
Protocol: as §1, §2

[8] = molecular target: GARP / TGF-β1 Q272Y complex (human, UniProt Q14392 20-662; P01137 30-390); test: as above
Protocol: as §1, §2

[9] = molecular target: GARP T162D / TGF-β1 complex (human, UniProt Q14392 20-662; P01137 30-390); test: as above
Protocol: as §1, §2

[10] = molecular target: GARP / TGF-β1 Y336A complex (human, UniProt Q14392 20-662; P01137 30-390); test: as above
Protocol: as §1, §2

[11] = molecular target: GARP E189A / TGF-β1 complex (human, UniProt Q14392 20-662; P01137 30-390); test: as above
Protocol: as §1, §2

[12] = molecular target: GARP / TGF-β1 Y284A complex (human, UniProt Q14392 20-662; P01137 30-390); test: as above
Protocol: as §1, §2

[13] = molecular target: T2, GARP S138G / TGF-β1 complex (human, UniProt Q14392 20-662; P01137 30-390); test: as above
Protocol: as §1, §2

[14] = molecular target: GARP R163E / TGF-β1 complex (human, UniProt Q14392 20-662; P01137 30-390); test: as above
Protocol: as §1, §2

[15] = molecular target: T3, chimera 332 / hTGF-β1 complex on the cell surface (Mus musculus, UniProt G3XA59); test: FACS, 293T, HA-tagged construct + hTGFB1
T3 construct: N-terminal part

[16] = molecular target: T4, chimera 207 / hTGF-β1 complex on the cell surface (Mus musculus, UniProt G3XA59); test: FACS, 293T, HA-tagged construct + hTGFB1
T4 construct: N-terminal part

[17] = molecular target: T5, chimera 141 / hTGF-β1 complex on the cell surface (Mus musculus, UniProt G3XA59); test: FACS, 293T, HA-tagged construct + hTGFB1
T5 construct: N-terminal part

[18] = molecular target: T6, chimera 265 / hTGF-β1 complex on the cell surface (Mus musculus, UniProt G3XA59); test: FACS, 293T, HA-tagged construct + hTGFB1
T6 construct: N-terminal part

[19] = molecular target: T7, mGARP/hTGF-β1 complex on the cell surface (mouse; human, UniProt G3XA59 18-663); test: FACS, 293T, HA-tagged mouse GARP + hTGFB1
T7 construct: whole, on cells; also called cells transfected with hTGFB1 and mGARP

[20] = molecular target: T1, GARP G139N / TGF-β1 complex; test: flow cytometry titration on transfected 293T cells; grade of Reduced avidity read by footnote 3
Protocol: as §1, §2

[21] = molecular target: T2, GARP S138G / TGF-β1 complex; test: as above
Protocol: as §1, §2

T1 sequence (Q14392 20-662 G139N limits assumed, chain 1 of 2): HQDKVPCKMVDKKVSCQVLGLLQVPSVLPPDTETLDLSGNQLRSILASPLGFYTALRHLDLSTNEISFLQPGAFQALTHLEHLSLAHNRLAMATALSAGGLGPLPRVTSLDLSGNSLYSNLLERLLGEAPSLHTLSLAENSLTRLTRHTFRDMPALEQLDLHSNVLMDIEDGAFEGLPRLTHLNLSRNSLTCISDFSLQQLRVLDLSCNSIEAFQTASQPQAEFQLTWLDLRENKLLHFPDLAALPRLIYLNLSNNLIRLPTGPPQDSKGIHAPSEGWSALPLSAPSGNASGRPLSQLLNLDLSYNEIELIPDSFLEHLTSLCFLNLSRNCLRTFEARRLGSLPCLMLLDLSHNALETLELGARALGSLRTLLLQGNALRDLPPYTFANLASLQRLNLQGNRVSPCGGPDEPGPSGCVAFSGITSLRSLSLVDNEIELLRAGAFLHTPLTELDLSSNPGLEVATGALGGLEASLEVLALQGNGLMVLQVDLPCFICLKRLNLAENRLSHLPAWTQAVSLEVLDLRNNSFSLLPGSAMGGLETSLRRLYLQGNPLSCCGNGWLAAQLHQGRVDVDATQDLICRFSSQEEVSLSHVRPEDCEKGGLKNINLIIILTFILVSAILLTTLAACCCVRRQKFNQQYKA
T1 sequence (P01137 30-390 limits assumed, chain 2 of 2): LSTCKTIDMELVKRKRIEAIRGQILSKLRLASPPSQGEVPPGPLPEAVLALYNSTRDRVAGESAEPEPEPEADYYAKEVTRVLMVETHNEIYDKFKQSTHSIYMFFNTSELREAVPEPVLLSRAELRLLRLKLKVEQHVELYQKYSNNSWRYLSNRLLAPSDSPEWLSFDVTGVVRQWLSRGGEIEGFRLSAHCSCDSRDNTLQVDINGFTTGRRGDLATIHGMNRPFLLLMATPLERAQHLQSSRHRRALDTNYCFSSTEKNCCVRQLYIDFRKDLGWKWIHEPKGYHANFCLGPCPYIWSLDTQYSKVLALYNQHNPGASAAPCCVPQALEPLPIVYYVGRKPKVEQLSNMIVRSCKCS
T2 sequence (Q14392 20-662 S138G limits assumed, chain 1 of 2): as the sequence (Q14392 20-662 G139N limits assumed, chain 1 of 2) above, with S119G, N120G counted along it
T2 sequence (P01137 30-390 limits assumed, stated change not applied, chain 2 of 2): as the sequence (P01137 30-390 limits assumed, chain 2 of 2) above
T6 sequence (G3XA59 other isoform, or with tags, fused parts or gaps mutant limits assumed, chain 1 of 2): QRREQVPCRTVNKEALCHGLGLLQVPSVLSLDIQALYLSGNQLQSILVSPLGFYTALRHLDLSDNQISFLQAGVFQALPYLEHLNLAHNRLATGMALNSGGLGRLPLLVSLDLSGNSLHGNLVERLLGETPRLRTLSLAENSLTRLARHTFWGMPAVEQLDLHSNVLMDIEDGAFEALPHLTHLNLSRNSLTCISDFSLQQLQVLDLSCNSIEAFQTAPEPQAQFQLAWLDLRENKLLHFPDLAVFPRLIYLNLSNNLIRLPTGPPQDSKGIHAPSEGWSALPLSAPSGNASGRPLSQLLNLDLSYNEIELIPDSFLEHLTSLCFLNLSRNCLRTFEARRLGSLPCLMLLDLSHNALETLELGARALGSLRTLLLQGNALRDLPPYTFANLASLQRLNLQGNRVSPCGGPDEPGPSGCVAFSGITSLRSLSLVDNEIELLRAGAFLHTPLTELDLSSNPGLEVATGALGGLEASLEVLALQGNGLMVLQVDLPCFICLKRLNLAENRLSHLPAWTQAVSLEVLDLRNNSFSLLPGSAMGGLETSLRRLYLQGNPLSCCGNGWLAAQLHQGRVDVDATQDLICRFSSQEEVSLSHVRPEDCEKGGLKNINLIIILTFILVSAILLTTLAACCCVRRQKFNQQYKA
T6 sequence (TGF-β1, as listed by the source mutant limits assumed, chain 2 of 2): as the sequence (P01137 30-390 limits assumed, chain 2 of 2) above
T7 sequence (G3XA59 18-663, chain 1 of 2): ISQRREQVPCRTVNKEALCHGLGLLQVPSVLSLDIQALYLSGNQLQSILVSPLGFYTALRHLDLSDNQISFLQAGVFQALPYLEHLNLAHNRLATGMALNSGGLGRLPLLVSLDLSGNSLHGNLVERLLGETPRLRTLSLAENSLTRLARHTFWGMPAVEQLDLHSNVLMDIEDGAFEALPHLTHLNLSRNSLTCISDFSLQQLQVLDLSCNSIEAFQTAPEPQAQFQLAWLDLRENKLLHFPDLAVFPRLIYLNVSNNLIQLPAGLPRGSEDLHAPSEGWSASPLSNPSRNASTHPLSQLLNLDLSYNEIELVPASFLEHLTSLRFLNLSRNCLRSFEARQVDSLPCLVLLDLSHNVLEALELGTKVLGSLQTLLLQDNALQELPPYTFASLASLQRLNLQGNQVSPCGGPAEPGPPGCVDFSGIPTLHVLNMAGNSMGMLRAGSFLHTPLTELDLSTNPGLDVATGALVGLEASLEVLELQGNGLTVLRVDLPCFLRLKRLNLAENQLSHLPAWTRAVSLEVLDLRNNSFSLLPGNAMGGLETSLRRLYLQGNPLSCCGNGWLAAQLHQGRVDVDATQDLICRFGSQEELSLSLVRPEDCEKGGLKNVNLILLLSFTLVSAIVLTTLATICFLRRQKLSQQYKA
T7 sequence (chain, as listed by the source, chain 2 of 2): as the sequence (P01137 30-390 limits assumed, chain 2 of 2) above

Ratio of EC50 (mutant / wt) [1]: 1.6
Ratio of EC50 (mutant / wt) [2]: 0.8
Ratio of EC50 (mutant / wt) [3]: 7.2
Ratio of EC50 (mutant / wt) [4]: 0.8
Ratio of EC50 (mutant / wt) [5]: 1.5
Ratio of EC50 (mutant / wt) [6]: 1.2
Ratio of EC50 (mutant / wt) [7]: 0.7
Ratio of EC50 (mutant / wt) [8]: 0.9
Ratio of EC50 (mutant / wt) [9]: 2.5
Ratio of EC50 (mutant / wt) [10]: 1.9
Ratio of EC50 (mutant / wt) [11]: 0.8
Ratio of EC50 (mutant / wt) [12]: 1.9
Ratio of EC50 (mutant / wt) [13]: 0.6
Ratio of EC50 (mutant / wt) [14]: 4.1
binding result [15]: no binding
binding result [16]: no binding
binding result [17]: no binding
binding result [18]: no binding
binding result [19]: no binding
ratio of EC50 (mutant vs WT) [20]: ≤ 2 ratio
ratio of EC50 (mutant vs WT) [21]: ≤ 2 ratio
B1: LHG-10 (antibody, human IgG1, V domains shown)
VH: EVQLVQPGAELRNSGASVKVSCKASGYRFTSYYIDWVRQAPGQGLEWMGRIDPEDGGTKYAQKFQGRVTFTADTSTSTAYVELSSLRSEDTAVYYCARNEWETVVVGDLMYEYEYWGQGTQVTVSS
VL: DIQMTQSPTSLSASLGDRVTITCQASQSISSYLAWYQQKPGQAPKLLIYGASRLQTGVPSRFSGSGSGTSFTLTISGLEAEDAGTYYCQQYDSLPVTFGQGTKVELK
notes: llama-derived V regions in a full human IgG1

From patent US20160251438A1 (LUDWIG INSTITUTE FOR CANCER RESEARCH, published 2016)
